According to patent publication US20230407373A1 (priority 2020, published 2023):

B1: PUM1: host protein, UniProt Q14671 (protein, UniProt Q14671 2-1186, looked up)
Pumilio homolog 1: SVACVLKRKAVLWQDSFSPHLKHHPQEPANPNMPVVLTSGTGSQAQPQPAANQALAAGTHSSPVPGSIGVAGRSQDDAMVDYFFQRQHGEQLGGGGSGGGGYNNSKHRWPTGDNIHAEHQVRSMDELNHDFQALALEGRAMGEQLLPGKKFWETDESSKDGPKGIFLGDQWRDSAWGTSDHSVSQPIMVQRRPGQSFHVNSEVNSVLSPRSESGGLGVSMVEYVLSSSPGDSCLRKGGFGPRDADSDENDKGEKKNKGTFDGDKLGDLKEEGDVMDKTNGLPVQNGIDADVKDFSRTPGNCQNSANEVDLLGPNQNGSEGLAQLTSTNGAKPVEDFSNMESQSVPLDPMEHVGMEPLQFDYSGTQVPVDSAAATVGLFDYNSQQQLFQRPNALAVQQLTAAQQQQYALAAAHQPHIGLAPAAFVPNPYIISAAPPGTDPYTAGLAAAATLGPAVVPHQYYGVTPWGVYPASLFQQQAAAAAAATNSANQQTTPQAQQGQQQVLRGGASQRPLTPNQNQQGQQTDPLVAAAAVNSALAFGQGLAAGMPGYPVLAPAAYYDQTGALVVNAGARNGLGAPVRLVAPAPVIISSSAAQAAVAAAAASANGAAGGLAGTTNGPFRPLGTQQPQPQPQQQPNNNLASSSFYGNNSLNSNSQSSSLFSQGSAQPANTSLGFGSSSSLGATLGSALGGFGTAVANSNTGSGSRRDSLTGSSDLYKRTSSSLTPIGHSFYNGLSFSSSPGPVGMPLPSQGPGHSQTPPPSLSSHGSSSSLNLGGLTNGSGRYISAAPGAEAKYRSASSASSLFSPSSTLFSSSRLRYGMSDVMPSGRSRLLEDFRNNRYPNLQLREIAGHIMEFSQDQHGSRFIQLKLERATPAERQLVFNEILQAAYQLMVDVFGNYVIQKFFEFGSLEQKLALAERIRGHVLSLALQMYGCRVIQKALEFIPSDQQNEMVRELDGHVLKCVKDQNGNHVVQKCIECVQPQSLQFIIDAFKGQVFALSTHPYGCRVIQRILEHCLPDQTLPILEELHQHTEQLVQDQYGNYVIQHVLEHGRPEDKSKIVAEIRGNVLVLSQHKFASNVVEKCVTHASRTERAVLIDEVCTMNDGPHSALYTMMKDQYANYVVQKMIDVAEPGQRKIVMHKIRPHIATLRKYTYGKHILAKLEKYYMKNGVDLGPICGPPNGII
B2: THRAP3: host protein, UniProt Q9Y2W1 (protein, UniProt Q9Y2W1 2-955, looked up)
Thyroid hormone …: SKTNKSKSGSRSSRSRSASRSRSRSFSKSRSRSRSLSRSRKRRLSSRSRSRSYSPAHNRERNHPRVYQNRDFRGHNRGYRRPYYFRGRNRGFYPWGQYNRGGYGNYRSNWQNYRQAYSPRRGRSRSRSPKRRSPSPRSRSHSRNSDKSSSDRSRRSSSSRSSSNHSRVESSKRKSAKEKKSSSKDSRPSQAAGDNQGDEAKEQTFSGGTSQDTKASESSKPWPDATYGTGSASRASAVSELSPRERSPALKSPLQSVVVRRRSPRPSPVPKPSPPLSSTSQMGSTLPSGAGYQSGTHQGQFDHGSGSLSPSKKSPVGKSPPSTGSTYGSSQKEESAASGGAAYTKRYLEEQKTENGKDKEQKQTNTDKEKIKEKGSFSDTGLGDGKMKSDSFAPKTDSEKPFRGSQSPKRYKLRDDFEKKMADFHKEEMDDQDKDKAKGRKESEFDDEPKFMSKVIGANKNQEEEKSGKWEGLVYAPPGKEKQRKTEELEEESFPERSKKEDRGKRSEGGHRGFVPEKNFRVTAYKAVQEKSSSPPPRKTSESRDKLGAKGDFPTGKSSFSITREAQVNVRMDSFDEDLARPSGLLAQERKLCRDLVHSNKKEQEFRSIFQHIQSAQSQRSPSELFAQHIVTIVHHVKEHHFGSSGMTLHERFTKYLKRGTEQEAAKNKKSPEIHRRIDISPSTFRKHGLAHDEMKSPREPGYKAEGKYKDDPVDLRLDIERRKKHKERDLKRGKSRESVDSRDSSHSRERSAEKTEKTHKGSKKQKKHRRARDRSRSSSSSSQSSHSYKAEEYTEETEEREESTTGFDKSRLGTKDFVGPSERGGGRARGTFQFRARGRGWGRGNYSGNNNNNSNNDFQKRNREEEWDPEYTPKSKKYYLHDDREGEGSDKWVSRGRGRGAFPRGRGRFMFRKSSTSPKWAHDKFSGEEGEIEDDESGTENREEKDNIQPTTE
B3: HNRNPUL2: host protein, UniProt Q1KMD3 (protein, UniProt Q1KMD3 1-747, looked up)
Heterogeneous nuclear …: MEVKRLKVTELRSELQRRGLDSRGLKVDLAQRLQEALDAEMLEDEAGGGGAGPGGACKAEPRPVAASGGGPGGDEEEDEEEEEEDEEALLEDEDEEPPPAQALGQAAQPPPEPPEAAAMEAAAEPDASEKPAEATAGSGGVNGGEEQGLGKREEDEPEERSGDETPGSEVPGDKAAEEQGDDQDSEKSKPAGSDGERRGVKRQRDEKDEHGRAYYEFREEAYHSRSKSPLPPEEEAKDEEEDQTLVNLDTYTSDLHFQVSKDRYGGQPLFSEKFPTLWSGARSTYGVTKGKVCFEAKVTQNLPMKEGCTEVSLLRVGWSVDFSRPQLGEDEFSYGFDGRGLKAENGQFEEFGQTFGENDVIGCFANFETEEVELSFSKNGEDLGVAFWISKDSLADRALLPHVLCKNCVVELNFGQKEEPFFPPPEEFVFIHAVPVEERVRTAVPPKTIEECEVILMVGLPGSGKTQWALKYAKENPEKRYNVLGAETVLNQMRMKGLEEPEMDPKSRDLLVQQASQCLSKLVQIASRTKRNFILDQCNVYNSGQRRKLLLFKTFSRKVVVVVPNEEDWKKRLELRKEVEGDDVPESIMLEMKANFSLPEKCDYMDEVTYGELEKEEAQPIVTKYKEEARKLLPPSEKRTNRRNNRNKRNRQNRSRGQGYVGGQRRGYDNRAYGQQYWGQPGNRGGYRNFYDRYRGDYDRFYGRDYEYNRYRDYYRQYNRDWQSYYYHHPQDRDRYYRNYYGYQGYR
B4: U2AF2 (protein, UniProt P26368 2-475, looked up)
Splicing factor U2AF 65 kDa …: SDFDEFERQLNENKQERDKENRHRKRSHSRSRSRDRKRRSRSRDRRNRDQRSASRDRRRRSKPLTRGAKEEHGGLIRSPRHEKKKKVRKYWDVPPPGFEHITPMQYKAMQAAGQIPATALLPTMTPDGLAVTPTPVPVVGSQMTRQARRLYVGNIPFGITEEAMMDFFNAQMRLGGLTQAPGNPVLAVQINQDKNFAFLEFRSVDETTQAMAFDGIIFQGQSLKIRRPHDYQPLPGMSENPSVYVPGVVSTVVPDSAHKLFIGGLPNYLNDDQVKELLTSFGPLKAFNLVKDSATGLSKGYAFCEYVDINVTDQAIAGLNGMQLGDKKLLVQRASVGAKNATLVSPPSTINQTPVTLQVPGLMSSQVQMGGHPTEVLCLMNMVLPEELLDDEEYEEIVEDVRDECSKYGLVKSIEIPRPVDGVEVPGCGKIFVEFTSVFDCQKAMQGLTGRKFANRVVVTKYCDPDSYHRRDFW
B5: RTCB (protein, UniProt Q9Y3I0 1-505, looked up)
RNA-splicing ligase RtcB …: MSRSYNDELQFLEKINKNCWRIKKGFVPNMQVEGVFYVNDALEKLMFEELRNACRGGGVGGFLPAMKQIGNVAALPGIVHRSIGLPDVHSGYGFAIGNMAAFDMNDPEAVVSPGGVGFDINCGVRLLRTNLDESDVQPVKEQLAQAMFDHIPVGVGSKGVIPMNAKDLEEALEMGVDWSLREGYAWAEDKEHCEEYGRMLQADPNKVSARAKKRGLPQLGTLGAGNHYAEIQVVDEIFNEYAAKKMGIDHKGQVCVMIHSGSRGLGHQVATDALVAMEKAMKRDKIIVNDRQLACARIASPEGQDYLKGMAAAGNYAWVNRSSMTFLTRQAFAKVFNTTPDDLDLHVIYDVSHNIAKVEQHVVDGKERTLLVHRKGSTRAFPPHHPLIAVDYQLTGQPVLIGGTMGTCSYVLTGTEQGMTETFGTTCHGAGRALSRAKSRRNLDFQDVLDKLADMGIAIRVASPKLVMEEAPESYKNVTDVVNTCHDAGISKKAIKLRPIAVIKG

Each molecule was assayed on gRNA of HCoV-OC43. Details: type g_36_m; HCoV-OC43-infected HCT-8 cells, 36 hpi, Probe I.
Format: binding

First: B1
Second: B2
The “target (spectral count)” value of the first is higher: 11 for the first, 8 for the second.

With B3 the “target (spectral count)” value was 24.

Same assay, conditions: type g_36_m; uninfected-probe control, 36 hpi, Probe I

B1 and B2 are the same in “background (spectral count)” value: 1 for the first, 1 for the second.

For B3, the “background (spectral count)” value was 3.

Same assay, conditions: type n_48_v: 48 hours post-infection, infected cells, OC43 Probe I; unweighted spectral count

Compared with B1, B2 is higher in “target (spectral count, OC43 Probe I RNP capture)” value: 6 for the first, 10 for the second.

Compared with B4, B3 is higher in “target (spectral count, OC43 Probe I RNP capture)” value: 8 for the first, 33 for the second.

For B5, the “target (spectral count, OC43 Probe I RNP capture)” value was 7.

Same assay, conditions: type n_48_v: 48 hours post-infection, no-probe control on infected cells

Going from B1 to B2, the “background (spectral count, no-probe control)” value rises from 1 to 2.

First: B4
Second: B3
The “background (spectral count, no-probe control)” value of the first is lower: 1 for the first, 2 for the second.

B5 was tested, and the “background (spectral count, no-probe control)” value was 1.

The molecules below were run on SARS-CoV-2 gRNA and sgRNAs. Details: Probe II capture; […]; LC-MS/MS LFQ.
Format: binding

Compared with B1, B5 is lower in “target (unweighted spectral count in RNP capture)” value: 20 for the first, 14 for the second.

Same assay, conditions: […]; LC-MS/MS label-free quantification; probe pool not given

B2 and B4 are the same in “target (unweighted spectral count of the protein in the RNP capture experiment)” value: 6 for the first, 6 for the second.

For B3, the “target (unweighted spectral count of the protein in the RNP capture experiment)” value was 5.

Same assay, conditions: no-probe control pull-down, used as background for Probe II

B1 and B5 are the same in “background (unweighted spectral count in control)” value: 1 for the first, 1 for the second.

Same assay, conditions: protein background of the control (e.g. no-probe) experiment; […]

B2 and B4 are the same in “back-ground (unweighted spectral count of the protein in the control experiment)” value: 1 for the first, 1 for the second.

For B3, the “back-ground (unweighted spectral count of the protein in the control experiment)” value was 1.

Each molecule was assayed on SARS-CoV-2 gRNA. Details: […]; LC-MS/MS; Probe I sample (first 199 lines of Table 2).
Format: binding

Going from B1 to B2, the “target (unweighted spectral count of the protein in the RNP capture)” value rises from 6 to 7.

Compared with B4, B3 is lower in “target (unweighted spectral count of the protein in the RNP capture)” value: 7 for the first, 6 for the second.

In the case of B5, the “target (unweighted spectral count of the protein in the RNP capture)” value is reported as 6.

These molecules were tested on HCoV-OC43 gRNA and sgRNA. Details: 24 hpi; type n_24_v; tested against no-probe control; FDR<10%.
Format: binding

B5 was tested, and the “target (unweighted spectral count, OC43 Probe II capture)” value was 4.

Same assay, conditions: 36 hpi; type n_36_v; tested against no-probe control; FDR<10%

First: B1
Second: B2
The “target (unweighted spectral count, OC43 Probe II capture)” value of the first is lower: 6 for the first, 12 for the second.

Compared with B4, B3 is higher in “target (unweighted spectral count, OC43 Probe II capture)” value: 6 for the first, 14 for the second.

For B5, the “target (unweighted spectral count, OC43 Probe II capture)” value was 6.

Same assay, conditions: OC43 Probe II, 12 hpi (type n_12_v), infected cells; tested against no-probe control

Compared with B4, B3 is higher in “target (unweighted spectral count)” value: 5 for the first, 6 for the second.

Same assay, conditions: OC43 Probe II, 24 hpi (type n_24_v), infected cells; tested against no-probe control

In the case of B3, the “target (unweighted spectral count)” value is reported as 11.

Same assay, conditions: type n_48_v; 48 hpi; OC43 Probe II capture on infected cells

Going from B1 to B2, the “target (unweighted spectral count, OC43 Probe II)” value rises from 6 to 13.

Compared with B4, B3 is higher in “target (unweighted spectral count, OC43 Probe II)” value: 12 for the first, 25 for the second.

B5 was tested, and the “target (unweighted spectral count, OC43 Probe II)” value was 7.

Same assay, conditions: type n_48_v; 48 hpi; no-probe control on infected cells

First: B1
Second: B2
The “background (unweighted spectral count, no-probe control)” value of the first is lower: 1 for the first, 2 for the second.

Compared with B4, B3 is higher in “background (unweighted spectral count, no-probe control)” value: 1 for the first, 2 for the second.

In the case of B5, the “background (unweighted spectral count, no-probe control)” value is reported as 1.

Same assay, conditions: type s_36_m; HCoV-OC43-infected HCT-8 cells, 36 hpi, Probe II

B3 was tested, and the “target (spectral count)” value was 14.

Same assay, conditions: type s_36_m; uninfected-probe control, 36 hpi, Probe II

With B3 the “background (spectral count)” value was 1.
